Measured values taken from patent publication US8821943B2, “Methods and compositions for targeted delivery of therapeutic agents” (Board of Regents of the University of Nebraska, priority 2006, dated 2014).

Tests used:
[1] = test system: ARPE-19 cells; experiment: Nanoparticle uptake by human retinal pigment epithelial cells; assay type: cell-based; settings: 1 ml of 100 μg/ml suspension in serum free medium
Description: A study was performed to examine the effect of targeting moieties on biodegradable and non-biodegradable carrier particles and their uptake in ocular cells. The biodegradable and non-biodegradable targeted carrier particles of the preceding Example were used. Uptake of nanoparticles by human retinal pigment epithelial cells (ARPE-19 cell line) was quantified by measuring fluorescence in cell lysate obtained after incubation of targeted or untargeted (unconjugated) nanoparticles with ARPE-19 cell monolayers.
ARPE-19 cells were obtained from American Type Culture Collection (ATCC, Manassas, Va.). The cells were maintained in culture according to supplier's recommendation. All studies were conducted using confluent cells of passages 20-30. Dulbecco's modified Eagle's medium (DMEM-F/12), fetal bovine serum, penicillin-streptomycin and L-glutamine were obtained from Gibco-BRL (Invitrogen Inc., Carlsbad, Calif.). Cell culture flasks (T-75 cm^2) and plates were purchased from Corning Inc., (Corning, N.Y.). To investigate the uptake of particles, ARPE-19 cells between 20-30 passages were cultured in 24-well plates until confluency. […] Fluorescence intensity of the cell lysates was determined at an excitation and emission wavelength of 505 and 515 nm, respectively, for FluoSpheres®. […]

[2] = test system: excised bovine nasal tissue (MTA, MTP, ITP regions); experiment: Nanoparticle transport and uptake across excised bovine nasal tissue (Ussing chambers); assay type: in vitro ADME; settings: for Remaining in Donor / Total / Washes: mass balance; for Tissue Uptake / Transport: mass balance after 4 hr transport; for decrease in transport on co-treatment with free ligand / decrease in uptake on co-treatment with free ligand: m:s
Description: Transport studies were conducted in bovine nasal tissue. Bovine nasal tissue was obtained from freshly slaughtered cattle, and different regions (MTA, MTP, ITP) were prepared as described in Example 13. Nanoparticles coupled to deslorelin or transferring via aldehyde sulfate moieties were prepared as described in Example 3. The nanoparticle size was measured using a Zeta Plus Analyzer (Brookhaven Instruments Limited, UK). Particle size was analyzed before and after ligand conjugation in deionized filtered water.
The tissues were exposed to 5 ml of assay buffer with either peptide conjugated or plain nanoparticles on the donor side (mucosal or serosal surface). Assay buffer (5 ml) without particles was exposed to the receiver side (serosal or mucosal surface). The buffers used were pre-equilibrated to 37° C. or 4° C. The donor nanoparticle concentration was 20 or 100 μg/ml. […] Donor samples were collected at the beginning (replenished with particle stock suspension) and at the end of the experiment. The samples were collected in polypropylene tubes, capped, and stored at 4° C. until analysis. The aperture/tissue area exposed to the bathing fluids in this set up was 1.78 cm^2.
Nanoparticle Uptake: At the end of 4 hr in the above transport studies, the tissues exposed (1.78 cm^2) to the nanoparticle suspension were cut and washed thrice using 1 ml of assay buffer at pH 5. After the washes, the tissues were weighed and placed in 1 ml of 2% Triton-X 100™ and homogenized until a tissue suspension was formed using the Tissue Tearor™. The tissue debris was separated by centrifugation at 3000 rpm (Marathon Micro A, Fisher Scientific, Pittsburgh, Pa.) for 10 min. The supernatant was collected to analyze the amount of nanoparticles taken up by the tissue. Standard curves were prepared by homogenizing serial dilution of the stock solution with approximately 100-150 mg of nasal tissue. The homogenates were then centrifuged and the supernatant was analyzed.
Nanoparticle Transport and Uptake: Competition with Free Ligand: Similar to the transport and uptake studies mentioned above, the competition study was carried out using the modified Ussing chambers. The tissues were exposed to 20 μg/ml of nanoparticles conjugated with deslorelin or transferrin in the presence of 10 times (200 μg/ml) of plain deslorelin or transferrin in the donor chamber. Receiver samples were obtained at various intervals up to 4 hr and replaced with pre-warmed assay buffer. At the end of 4 hr the tissue region exposed to the nanoparticle preparation was cut and washed in assay buffer at pH 5. The tissues were then homogenized and centrifuged. The supernatants were analyzed to determine nanoparticle uptake.
Nanoparticle Quantification: The samples obtained from the transport studies, washes and supernatants of tissue homogenates were analyzed for nanoparticle content using a spectrofluorometer (Cary Eclipse, Varian Inc.). The excitation wavelength of 505 nm and an emission wavelength of 515 nm were used. Bandwidths of 3 or 5 nm were used for the sample analysis after dilution as required. The procedure used for extraction of the nanoparticles was performed as mentioned in the methods section under nanoparticle uptake. […] Briefly, similar amounts of tissues (weighed to match weight of tissues obtained from the transport experiment) were spiked with serially diluted stock nanoparticle suspensions (0.3 μg/ml-100 μg/ml) prepared in 2% Triton-X 100™. The tissues were homogenized, centrifuged and the supernatant obtained was used for standards. Standard curves were also prepared in assay buffer and acid wash buffer.

[3] = 20 μg/ml nanoparticles + 200 μg/ml free ligand, ITP
[4] = 20 μg/ml nanoparticles + 200 μg/ml free ligand, MTP

In the case of “Transferrin-AS: transferrin-aldehyde sulphate-conjugated polystyrene nanoparticles”, the “percentage uptake at 3 h by ARPE-19 cells” value [1] is reported as 12.2±0.26%, the “transport in the s:m direction greater than in the m:s direction” value (“transport … in the m:s direction” below) ([2]; ITP) is reported as 10% and the “Remaining in Donor” value ([2]; ITP) is reported as 94.51 ± 1.10%. The Total ([2]; ITP) was 98.62 ± 1.13%, the Washes ([2]; ITP) was 0.75 ± 0.10% and the “Tissue Uptake” value ([2]; ITP) was 3.98 ± 0.10%. The Transport ([2]; ITP) was 1.97 ± 0.05%, the “transport … in the m:s direction” value ([2]; MTA) was 16% and the “uptake, times higher than plain nanoparticles” value ([2]; MTA) was 3.6 times. For the same substance, the “percent transport as well as uptake, times higher than deslorelin-nanoparticles” value ([2]; MTA, MTP and ITP regions) was 1.3-1.4 times, the “Remaining in Donor” value ([2]; MTA) was 93.06 ± 0.99% and the Total ([2]; MTA) was 98.77 ± 0.95%. The Washes ([2]; MTA) was 0.50 ± 0.13%, the “Tissue Uptake” value ([2]; MTA) was 2.13 ± 0.13% and the Transport ([2]; MTA) was 1.13 ± 0.07%. The “transport … in the m:s direction” value ([2]; MTP) was 17%, the “uptake, times higher than plain nanoparticles” value ([2]; MTP) was 2.9 times and the “Remaining in Donor” value ([2]; MTP) was 92.14 ± 2.20%. The Total ([2]; MTP) was 98.99 ± 0.52%, the Washes ([2]; MTP) was 0.60 ± 0.11% and the “Tissue Uptake” value ([2]; MTP) was 2.99 ± 0.14%. For the same substance, the Transport ([2]; MTP) was 1.52 ± 0.11%, the “decrease in uptake at 4° C. compared to 37° C.” value (“decrease in uptake … to 37° C.” below) ([2]; m:s direction, ITP) was 77% and the “percent transport, times higher than plain nanoparticles” value ([2]; m:s direction, ITP) was roughly 1.8 times. For the same substance, the “decrease in uptake … to 37° C.” value ([2]; m:s direction, MTA) was 58%, the “percent transport, times higher than plain nanoparticles” value ([2]; m:s direction, MTA) was “approximately 3.3 times” and the “decrease in uptake … to 37° C.” value ([2]; m:s direction, MTP) was 70%. The “percent transport, times higher than plain nanoparticles” value ([2]; m:s direction, MTP) was roughly 2.1 times, the “decrease in transport on co-treatment with free ligand” value [2, 3] was 25% and the “decrease in uptake on co-treatment with free ligand” value [2, 3] was 44%. For the same substance, the “decrease in uptake on co-treatment with free ligand” value ([2]; 20 μg/ml nanoparticles + 200 μg/ml free ligand, MTA) was 43%, the “decrease in transport on co-treatment with free ligand” value [2, 4] was 33% and the “decrease in uptake on co-treatment with free ligand” value [2, 4] was 45%. For the same substance, the “decrease in transport on co-treatment with free ligand” value ([2]; 20 μg/ml nanoparticles + 200 μg/ml plain deslorelin or transferrin, MTA) was 22%, the “decrease in uptake … to 37° C.” value ([2]; s:m direction, ITP) was 80% and the “decrease in uptake … to 37° C.” value ([2]; s:m direction, MTA) was 65%. The “decrease in uptake … to 37° C.” value ([2]; s:m direction, MTP) was 75%.
